# Laboratory results: the RNAGym collection of RNA variant scans (doi:10.7554/elife.80360)
# B1: Hairpin Ribozyme (parent)
# chain: GUCCUCUUUCACGUGCGCGUGAAAGAGAGAAGUGAACCAGAGAAACACACGUUGUGGUAUAUUACCUGGUA
# Variants of: B1
# Test: self-cleavage, relative activity (ratio to wild type); higher = more cleavage; co-transcriptional
row,Variant,self-cleavage
1,C12U G54C,0.47
2,A39U U58G,0.227
3,A39U U58A,0.328
4,U62A U67A,0.134
5,G17U U55G,0.351
6,U8G A22U,0.582
7,G68U U70G,0.252
8,C66U,0.527
9,G13A G27U,0.257
10,C18U A28C,0.66
11,A28C U33C,0.107
12,G17C G29C,0.113
13,U8G,0.764
14,G32A G57U,0.118
15,G19U A36G,1
16,G29A A39C,0.108
17,A30U A64C,0.174
18,C6A G13U,0.592
19,U9G G19C,0.56
20,A44C G68U,0.126
21,A45G U60A,0.105

row,Variant,self-cleavage
1,G29C U58G,0.077
2,U52C G68C,0.219
3,U58C A59G,0.272
4,U8A G56A,0.158
5,U9G A59C,0.275
6,A28C U63A,0.0573
7,C4U G51U,0.194
8,A45U G57U,0.166
9,C46U G69U,0.172
10,C4A A36G,0.198
11,A39U U62C,0.133
12,A45G U53G,0.108
13,C37U A61G,0.126
14,C50U G54A,0.864
15,U58G U70G,0.575
16,C16U A23C,1.03
17,A45U A61U,0.122
18,U20A G27C,0.175
19,G32C C65A,0.0926
20,A24C A44G,0.104
21,A59C U60C,0.167

row,Variant,self-cleavage
1,A47C A71U,0.147
2,G25C U33C,0.319
3,U58G U62G,0.304
4,U33C A45C,0.124
5,U5G G25U,0.306
6,A45G A71C,0.399
7,A41U A45C,0.258
8,C6A A49C,0.112
9,G54C A61G,0.0386
10,U8C A43U,0.241
11,A28C A36U,0.302
12,G1C U55C,0.18
13,G27A C37G,0.15
14,U14G U63C,0.175
15,U2C C12U,0.226
16,U2C C12G,0.0835
17,U7C A71C,1.35
18,G17C C50U,0.286
19,A23C A26U,0.499
20,G27U A39U,0.144
21,C6G U7G,0.131

row,Variant,self-cleavage
1,A47U U53G,0.108
2,U8C G15U,0.932
3,U9G C38U,0.41
4,G25A G42A,0.0699
5,C4G C16G,0.201
6,A26G U55C,0.206
7,U62A U63C,0.113
8,G15C A36U,0.505
9,A31U C38A,0.0669
10,U20C A64C,0.151
11,A35G U60A,1.11
12,G27C G69A,0.0883
13,G40C U67A,0.0737
14,C6G U14A,0.634
15,G17A U58C,0.869
16,G17A U58G,0.78
17,C4U A45U,0.0517
18,C12U G32C,0.134
19,G15A A49C,0.0193
20,U20C G32A,0.274
21,A39C G54U,0.103
